Measured values reported in patent publication US20170159025A1.

Key:
EGFRvIII = EGFRvIII (UniProt P00533); experiment: cell-based or functional assay
[1] = target: human epidermal growth factor receptor (EGFR) (human) (UniProt P00533); experiment: cell-based or functional assay

Row | Substance | Cytotoxicity % (LDH release), U87-EGFRvIII cells, effector to target 1:1 (EGFRvIII) [%] | Cytotoxicity % (LDH release), U87-EGFRvIII cells, effector to target 3:1 (EGFRvIII) [%] | Cytotoxicity against target cells % (LDH release), U87-EGFRvIII cells, effector to target 5:1, 20 h (EGFRvIII) [%] | Cytotoxicity % (LDH release), BxPC-3 cells, effector to target 1:1 [1] [%] | Cytotoxicity % (LDH release), BxPC-3 cells, effector to target 1:3 [1] [%] | Cytotoxicity % (LDH release), BxPC-3 cells, effector to target 3:1 [1] [%] | Cytotoxicity % (LDH release), CFPAC-1 cells, effector to target 3:1 [1] [%] | Cytotoxicity % (LDH release), PANC-1 cells, effector to target 1:1 [1] [%] | Cytotoxicity % (LDH release), PANC-1 cells, effector to target 3:1 [1] [%] | Cytotoxicity % (LDH release), U87-EGFR cells, effector to target 1:1 [1] [%] | Cytotoxicity % (LDH release), U87-EGFR cells, effector to target 1:3 [1] [%] | Cytotoxicity % (LDH release), U87-EGFR cells, effector to target 3:1 [1] [%] | Cytotoxicity % (LDH release), U87 cells, effector to target 1:1 [1] [%] | Cytotoxicity % (LDH release), U87 cells, effector to target 1:3 [1] [%] | Cytotoxicity % (LDH release), U87 cells, effector to target 3:1 [1] [%] | cytotoxicity against tumor cells U87-EGFRvIII (LDH release) (EGFRvIII) [%] | Cytotoxicity % (LDH release), CFPAC-1 cells, effector to target 1:1 [1] [%] | Cytotoxicity % (LDH release), CFPAC-1 cells, effector to target 1:3 [1] [%] | Cytotoxicity % (LDH release), PANC-1 cells, effector to target 1:3 [1] [%]
1 | chimeric antigen receptor 806-28BBZ, scFv(EGFR)-CD28-CD28-CD137-CD3 zeta (from UniProt P01732 138-182; P10747 153-220; Q07011 214-255; P20963 52-164) | 41 | 81 | 85 | 49 | 24 | 70 | 40 | 28 | 65 | 49 | 29 | 98 | -14 | -25 | -2 | – | – | – | –
2 | chimeric antigen receptor 806-Z, scFv(EGFR)-CD8-CD3 zeta (from UniProt P01732 138-203; P20963 52-164) | – | – | 56 | 24 | 14 | 44 | 43 | 34 | – | – | – | – | – | – | – | 55.5 | 35 | 12 | 18
